Reference: PMC8225329, “Molecular and Mechanistic Characterization of PddB, the First PLP-Independent 2,4-Diaminobutyric Acid Racemase Discovered in an Actinobacterial D-Amino Acid Homopolymer Biosynthesis” (Frontiers in Microbiology, 2021)

How the values were obtained:
[1] = substrate: NCC[C@@H](N)C(=O)O; test: initial-velocity racemase assay, FDLA (Marfey) LC-MS; Lineweaver-Burk; format: biochemical, Streptoalloteichus hindustanus; settings: D to L direction, no cofactor, 100 mM TAPS-NaOH pH 8.5, 30°C
Text: (§1) initial-velocity racemase assay, FDLA (Marfey) LC-MS; Lineweaver-Burk on PddB

[2] = substrate: NCC[C@H](N)C(=O)O; test: as above; format: biochemical, Streptoalloteichus hindustanus; settings: L to D direction, no cofactor, 100 mM TAPS-NaOH pH 8.5, 30°C
Text: as §1

B1: PddB (Streptoalloteichus hindustanus) (protein)
chain: MSDQHNQVLDSELTAFRERVVEGVRFDTLRFCIMHGDGNVIMIVDERLSGLAAESVTSTLARELCQSFTVPKVDGVAFVRPTVSPLRMTYFERDGTHAQMCGNALRCLTRYGVERGYLSTEDSVETDDGVKRVSFVDGEARAALGPGREYQQVRDNWYFAFSGLPHLVVVMDDLDAFNAVNVRVDGAKLAHDEELCRQLNHPEGLHVNYLHRGEDHIAIRTFEVGVEDETKACGTGVAATGYIAHRAWGMPYPLRVRVPGGVMTAEDGEHGLTISGVTGYLFTEDETPVANVFQRSVL
notes: full length, C-terminal His6 tag, pET-21b(+), E. coli Rosetta 2 (DE3), Ni-NTA; 33 kDa; monomer; C-terminal domain given as 163-295
[1]
  Km: 6.1 ± 1.0 mM
  Vmax: 136 µmol/min/mg
  Vmax/Km: 22200 µL/min/mg
  kcat: 75 ± 5 s⁻¹
  kcat/Km: 12200 M⁻¹ s⁻¹
[2]
  Km: 10.1 ± 1.9 mM
  Vmax: 210 µmol/min/mg
  Vmax/Km: 20800 µL/min/mg
  kcat: 116 ± 12 s⁻¹
  kcat/Km: 11400 M⁻¹ s⁻¹
